Measurements as given in US20200040057A1.

What was measured:
[1] = target: HLA-B*07 (human); test: UV peptide exchange ELISA; ++++ = yield >75%
[2] = target: HLA-B*07 (human); test: UV peptide exchange ELISA; +++ = yield >50

Binder	peptide exchange yield [1]	peptide exchange yield [2]
FPNEVSVVL	> 75%	–
LPRGLSPARQL	–	50 to 75%
VPRPTSTVGL	–	50 to 75%
VPRPIFSQLYL	> 75%	–
LPRIPFSTF	> 75%	–
